Source: patent publication US20160223529A1 (UNIVERSITY OF QUEENSLAND, published 2016)

T1: TVMV-AI-ePDZ-Binder
T1 chain: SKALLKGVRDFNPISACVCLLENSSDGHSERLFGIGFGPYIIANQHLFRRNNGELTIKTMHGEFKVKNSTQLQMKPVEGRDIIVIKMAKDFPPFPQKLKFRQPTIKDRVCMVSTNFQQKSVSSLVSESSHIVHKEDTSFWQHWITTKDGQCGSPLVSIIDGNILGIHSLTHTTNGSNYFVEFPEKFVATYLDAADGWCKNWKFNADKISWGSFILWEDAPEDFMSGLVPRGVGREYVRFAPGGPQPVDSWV


What was measured:
[1] = target: Calmodulin (Homo sapiens (Human), UniProt P0DP23 4-149); experiment: Protease activation assay: TVMV activity on a fluorogenic substrate at different calmodulin concentrations (FIG. 3)
[2] = target: T1, TVMV-AI-ePDZ-Binder; experiment: Protease activation assay: TVMV activity on a fluorogenic substrate (FIG. 5)

Row | Binder | binding result [1] | binding result [2]
1 | TVMV-AI-CalmodulinBinder (enzyme, also called TVMV based calmodulin sensor) SKALLKGVRDFNPISACVCLLENSSDGHSERLFGIGFGPYIIANQHLFRRNNGELTIKTMHGEFKVKNSTQLQMKPVEGRDIIVIKMAKDFPPFPQKLKFRQPTIKDRVCMVSTNFQQKSVSSLVSESSHIVHKEDTSFWQHWITTKDGQCGSPLVSIIDGNILGIHSLTHTTNGSNYFVEFPEKFVATYLDAADGWCKNWKFNADKISWGSFILWEDAPEDFMSGLVPRGVGREYVRFAPRWKKNFIAVSAANRFKKISSSGAL | binds | –
2 | ePDZ (designed binder) SGTSPELGFSISGGVGGRGNPFRPDDDGIFVTRVQPEGPASKLLQPGDKIIQANGYSFINIEHGQAVSLLKTFQNTVELIIVREVGNGAKQEIRVRVEKDGGSGGVSSVPTNLEVVAATPTSLLISWDASYYGVSYYRITYGETGGNSPVQEFTVPYSSSTATISGLKPGVDYTITVYAYSDYYGSHHYSPISINYRTSGC | – | binds
